125 sequences from the supplement of paper PMC9112550, “Optimization of the antimicrobial peptide Bac7 by deep mutational scanning” (BMC Biology, 2022) can be followed below.
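Further: peptides expressed intracellularly from a pBAD plasmid library in pooled LB shake-flask culture, induced with 0.3% L-arabinose, DNA abundance read by NGS, three biological replicates, DESeq2 with apeglm shrinkage.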

This series concerns Escherichia coli TOP10. Put plainly: shrunken log2 fold change of peptide-encoding DNA abundance (4.5 h post-induction vs induction); higher = less antimicrobial activity (less host growth inhibition). The settings on record: time post-induction: 4.5 h; library: site-saturation at positions 5, 18, 19, 20.
On to RRIRSRPPRLPRPRPRPHKFPRP, for which the “shrunken log2 fold change” value amounted to 0.00286.

For RRIRHRPPRLPRPRPRPCFWPRP, the “shrunken log2 fold change” value was -0.0857.

As for RRIRARPPRLPRPRPRPQIPPRP, the “shrunken log2 fold change” value was -0.346.

With RRIRERPPRLPRPRPRPCAYPRP, the “shrunken log2 fold change” value was -1.05.

As to RRIRMRPPRLPRPRPRPYAEPRP, the “shrunken log2 fold change” value stood at 0.0571.

For the sequence RRIRYRPPRLPRPRPRPCMAPRP, the “shrunken log2 fold change” value was -0.117.

Take RRIRMRPPRLPRPRPRPKASPRP: the “shrunken log2 fold change” value amounted to 1.97.

Take RRIRCRPPRLPRPRPRPADAPRP: the “shrunken log2 fold change” value was 1.44.

Turning to RRIRGRPPRLPRPRPRPDAEPRP, the “shrunken log2 fold change” value came to 3.37.

In the case of RRIRGRPPRLPRPRPRPFQTPRP, the “shrunken log2 fold change” value came out at 0.013.

Take RRIRRRPPRLPRPRPRPSCNPRP: the “shrunken log2 fold change” value was -0.112.

As to RRIRQRPPRLPRPRPRPHNTPRP, the “shrunken log2 fold change” value is -0.902.

For the sequence RRIRHRPPRLPRPRPRPRYNPRP, the “shrunken log2 fold change” value is -0.591.

For the sequence RRIRDRPPRLPRPRPRPGTIPRP, the “shrunken log2 fold change” value was -0.485.

As for RRIRARPPRLPRPRPRPARKPRP, the “shrunken log2 fold change” value was found to be 0.898.

For the sequence RRIRTRPPRLPRPRPRPKFVPRP, the “shrunken log2 fold change” value was 0.368.

Regarding RRIRCRPPRLPRPRPRPRAVPRP, the “shrunken log2 fold change” value was 0.405.

For RRIRFRPPRLPRPRPRPKYFPRP, the “shrunken log2 fold change” value was -0.758.

Take RRIRGRPPRLPRPRPRPFIEPRP: the “shrunken log2 fold change” value was determined as 0.364.

As for RRIRWRPPRLPRPRPRPHKMPRP, the “shrunken log2 fold change” value is -0.146.

For RRIRIRPPRLPRPRPRPQRYPRP, the “shrunken log2 fold change” value came to 0.159.

For RRIRMRPPRLPRPRPRPSQNPRP, the “shrunken log2 fold change” value amounted to 0.407.

Take RRIRARPPRLPRPRPRPMREPRP: the “shrunken log2 fold change” value amounted to 0.844.

Regarding RRIRVRPPRLPRPRPRPSTKPRP, the “shrunken log2 fold change” value was -0.213.

Regarding RRIRHRPPRLPRPRPRPWPFPRP, the “shrunken log2 fold change” value was -0.285.

For RRIRVRPPRLPRPRPRPDSDPRP, the “shrunken log2 fold change” value is -0.0912.

As for RRIRVRPPRLPRPRPRPLYKPRP, the “shrunken log2 fold change” value was -0.584.

As for RRIRSRPPRLPRPRPRPRVMPRP, the “shrunken log2 fold change” value is -0.171.

Turning to RRIRQRPPRLPRPRPRPFKYPRP, the “shrunken log2 fold change” value was -0.0224.

Take RRIRDRPPRLPRPRPRPNPDPRP: the “shrunken log2 fold change” value is -0.0924.

On to RRIRYRPPRLPRPRPRPRNWPRP, for which the “shrunken log2 fold change” value is -0.0364.

RRIRIRPPRLPRPRPRPTGGPRP: the “shrunken log2 fold change” value is -0.00471.

Take RRIRHRPPRLPRPRPRPNDAPRP: the “shrunken log2 fold change” value was -0.2.

On to RRIRERPPRLPRPRPRPSMCPRP, for which the “shrunken log2 fold change” value is -0.409.

In the case of RRIRSRPPRLPRPRPRPEYLPRP, the “shrunken log2 fold change” value is -0.0519.

RRIRTRPPRLPRPRPRPDSCPRP: the “shrunken log2 fold change” value is -0.311.

On to RRIRDRPPRLPRPRPRPSWVPRP, for which the “shrunken log2 fold change” value was -0.211.

Take RRIRDRPPRLPRPRPRPMKCPRP: the “shrunken log2 fold change” value was -0.00962.

With RRIRDRPPRLPRPRPRPICRPRP, the “shrunken log2 fold change” value was 0.266.

Consider RRIRARPPRLPRPRPRPDKTPRP, for which the “shrunken log2 fold change” value is -0.00345.

As to RRIRWRPPRLPRPRPRPHILPRP, the “shrunken log2 fold change” value is -0.358.

Turning to RRIRKRPPRLPRPRPRPPWEPRP, the “shrunken log2 fold change” value stood at 1.23.

For the sequence RRIRQRPPRLPRPRPRPHYAPRP, the “shrunken log2 fold change” value is -0.0213.

Regarding RRIRTRPPRLPRPRPRPSQKPRP, the “shrunken log2 fold change” value amounted to 0.039.

Regarding RRIRVRPPRLPRPRPRPEVGPRP, the “shrunken log2 fold change” value worked out at 0.175.

As for RRIRQRPPRLPRPRPRPLATPRP, the “shrunken log2 fold change” value was 0.0953.

Turning to RRIRMRPPRLPRPRPRPASVPRP, the “shrunken log2 fold change” value turned out to be 1.67.

For RRIRIRPPRLPRPRPRPIWNPRP, the “shrunken log2 fold change” value was -0.263.

As to RRIRLRPPRLPRPRPRPYELPRP, the “shrunken log2 fold change” value stood at 0.00404.

On to RRIRPRPPRLPRPRPRPVTMPRP, for which the “shrunken log2 fold change” value was -0.297.

Turning to RRIRFRPPRLPRPRPRPYYEPRP, the “shrunken log2 fold change” value is -0.231.

For the sequence RRIRPRPPRLPRPRPRPYDRPRP, the “shrunken log2 fold change” value was -0.319.

In the case of RRIRIRPPRLPRPRPRPIWKPRP, the “shrunken log2 fold change” value was -0.0131.

Consider RRIRSRPPRLPRPRPRPKWPPRP, for which the “shrunken log2 fold change” value is 0.146.

As to RRIRQRPPRLPRPRPRPTMGPRP, the “shrunken log2 fold change” value is -0.0283.

As to RRIRERPPRLPRPRPRPPNVPRP, the “shrunken log2 fold change” value turned out to be 0.149.

As for RRIRIRPPRLPRPRPRPESWPRP, the “shrunken log2 fold change” value was found to be 0.249.

Consider RRIRIRPPRLPRPRPRPILSPRP, for which the “shrunken log2 fold change” value was -0.421.

As to RRIRKRPPRLPRPRPRPRRRPRP, the “shrunken log2 fold change” value stood at 1.27.

Consider RRIRMRPPRLPRPRPRPLFHPRP, for which the “shrunken log2 fold change” value was -0.0668.

As for RRIRERPPRLPRPRPRPWKHPRP, the “shrunken log2 fold change” value is -0.176.

Take RRIRERPPRLPRPRPRPSMHPRP: the “shrunken log2 fold change” value is -0.451.

In the case of RRIRDRPPRLPRPRPRPWIFPRP, the “shrunken log2 fold change” value was determined as 0.148.

Consider RRIRWRPPRLPRPRPRPAPDPRP, for which the “shrunken log2 fold change” value was 1.14.

With RRIRRRPPRLPRPRPRPSKFPRP, the “shrunken log2 fold change” value is -0.0219.

As for RRIRMRPPRLPRPRPRPLRAPRP, the “shrunken log2 fold change” value was 2.97.

As for RRIRGRPPRLPRPRPRPYNEPRP, the “shrunken log2 fold change” value is -0.329.

RRIRDRPPRLPRPRPRPEKCPRP: the “shrunken log2 fold change” value was -0.000921.

Take RRIRYRPPRLPRPRPRPWGRPRP: the “shrunken log2 fold change” value was -0.186.

With RRIRFRPPRLPRPRPRPQDMPRP, the “shrunken log2 fold change” value turned out to be 0.028.

RRIRFRPPRLPRPRPRPHVKPRP: the “shrunken log2 fold change” value was -0.0318.

As to RRIRKRPPRLPRPRPRPATPPRP, the “shrunken log2 fold change” value worked out at 0.939.

Consider RRIRDRPPRLPRPRPRPGHGPRP, for which the “shrunken log2 fold change” value is -0.0236.

For the sequence RRIRVRPPRLPRPRPRPFIMPRP, the “shrunken log2 fold change” value was -0.084.

For the sequence RRIRFRPPRLPRPRPRPSAWPRP, the “shrunken log2 fold change” value was 0.534.

As to RRIRMRPPRLPRPRPRPVERPRP, the “shrunken log2 fold change” value amounted to 0.015.

As to RRIRDRPPRLPRPRPRPVQRPRP, the “shrunken log2 fold change” value is 0.121.

RRIRTRPPRLPRPRPRPVSYPRP: the “shrunken log2 fold change” value was -0.242.

On to RRIRKRPPRLPRPRPRPQMNPRP, for which the “shrunken log2 fold change” value was determined as 0.104.

With RRIRERPPRLPRPRPRPQDPPRP, the “shrunken log2 fold change” value was -0.232.

Regarding RRIRMRPPRLPRPRPRPGQEPRP, the “shrunken log2 fold change” value was 0.605.

Turning to RRIRGRPPRLPRPRPRPWIYPRP, the “shrunken log2 fold change” value was -0.372.

As for RRIRSRPPRLPRPRPRPWDHPRP, the “shrunken log2 fold change” value is -0.143.

In the case of RRIRPRPPRLPRPRPRPDYTPRP, the “shrunken log2 fold change” value is -0.957.

On to RRIRVRPPRLPRPRPRPVHIPRP, for which the “shrunken log2 fold change” value is -0.174.

Turning to RRIRDRPPRLPRPRPRPVGTPRP, the “shrunken log2 fold change” value is -0.0472.

Turning to RRIRYRPPRLPRPRPRPANNPRP, the “shrunken log2 fold change” value was -0.45.

For the sequence RRIRNRPPRLPRPRPRPRSFPRP, the “shrunken log2 fold change” value came out at 0.0523.

As to RRIRARPPRLPRPRPRPNVWPRP, the “shrunken log2 fold change” value was found to be 0.537.

For RRIRYRPPRLPRPRPRPREDPRP, the “shrunken log2 fold change” value is -0.126.

In the case of RRIRKRPPRLPRPRPRPFDAPRP, the “shrunken log2 fold change” value came out at 0.337.

On to RRIRCRPPRLPRPRPRPQNDPRP, for which the “shrunken log2 fold change” value was -0.505.

For the sequence RRIRERPPRLPRPRPRPHHFPRP, the “shrunken log2 fold change” value was -0.0117.

On to RRIRIRPPRLPRPRPRPNTIPRP, for which the “shrunken log2 fold change” value was -0.355.

As to RRIRGRPPRLPRPRPRPPNAPRP, the “shrunken log2 fold change” value was found to be 1.35.

With RRIRKRPPRLPRPRPRPEAMPRP, the “shrunken log2 fold change” value amounted to 0.0888.

RRIRMRPPRLPRPRPRPPGFPRP: the “shrunken log2 fold change” value came to 0.619.

Take RRIRNRPPRLPRPRPRPQHNPRP: the “shrunken log2 fold change” value was -0.625.

For the sequence RRIRKRPPRLPRPRPRPENDPRP, the “shrunken log2 fold change” value is -0.0386.

As to RRIRFRPPRLPRPRPRPQMVPRP, the “shrunken log2 fold change” value is -0.0194.

Regarding RRIRCRPPRLPRPRPRPLVVPRP, the “shrunken log2 fold change” value was -0.347.

RRIRNRPPRLPRPRPRPGLDPRP: the “shrunken log2 fold change” value turned out to be 0.00266.

With RRIRDRPPRLPRPRPRPPKIPRP, the “shrunken log2 fold change” value was -0.0144.

Turning to RRIRQRPPRLPRPRPRPLWVPRP, the “shrunken log2 fold change” value was 0.221.

Consider RRIRDRPPRLPRPRPRPEAGPRP, for which the “shrunken log2 fold change” value came to 0.67.

On to RRIRLRPPRLPRPRPRPQPGPRP, for which the “shrunken log2 fold change” value worked out at 0.0607.

For the sequence RRIRTRPPRLPRPRPRPCHAPRP, the “shrunken log2 fold change” value is -0.0567.

Consider RRIRGRPPRLPRPRPRPWETPRP, for which the “shrunken log2 fold change” value amounted to 0.272.

Turning to RRIRTRPPRLPRPRPRPIVLPRP, the “shrunken log2 fold change” value is -0.145.

Take RRIRNRPPRLPRPRPRPTIFPRP: the “shrunken log2 fold change” value is -0.248.

On to RRIRPRPPRLPRPRPRPDHYPRP, for which the “shrunken log2 fold change” value is -0.203.

Turning to RRIRHRPPRLPRPRPRPGAGPRP, the “shrunken log2 fold change” value turned out to be 0.395.

For RRIRGRPPRLPRPRPRPRCCPRP, the “shrunken log2 fold change” value came to 0.474.

Turning to RRIRTRPPRLPRPRPRPKKGPRP, the “shrunken log2 fold change” value was -0.0611.

Regarding RRIRVRPPRLPRPRPRPIVSPRP, the “shrunken log2 fold change” value was -0.187.

With RRIRIRPPRLPRPRPRPCRLPRP, the “shrunken log2 fold change” value was -0.468.

Regarding RRIRPRPPRLPRPRPRPMKWPRP, the “shrunken log2 fold change” value was found to be 0.291.

Take RRIRKRPPRLPRPRPRPHWSPRP: the “shrunken log2 fold change” value stood at 0.139.

In the case of RRIRQRPPRLPRPRPRPQYVPRP, the “shrunken log2 fold change” value stood at 0.0318.

For the sequence RRIRGRPPRLPRPRPRPGRAPRP, the “shrunken log2 fold change” value came to 0.84.

Take RRIRYRPPRLPRPRPRPHWIPRP: the “shrunken log2 fold change” value is -0.398.

RRIRKRPPRLPRPRPRPSRSPRP: the “shrunken log2 fold change” value was 0.0164.

Take RRIRGRPPRLPRPRPRPQCAPRP: the “shrunken log2 fold change” value came out at 1.11.

RRIRMRPPRLPRPRPRPGGPPRP: the “shrunken log2 fold change” value stood at 0.119.

For RRIRLRPPRLPRPRPRPGRSPRP, the “shrunken log2 fold change” value was found to be 0.326.
